From patent publication US20250179138

Test system: ACP11 (human p40/murine p35 IL-12 fusion protein)

Chain of active MMP9 (Sigma catalog #SAE0078-50 or Enzo catalog BML-SE360) (chain, as listed by the source): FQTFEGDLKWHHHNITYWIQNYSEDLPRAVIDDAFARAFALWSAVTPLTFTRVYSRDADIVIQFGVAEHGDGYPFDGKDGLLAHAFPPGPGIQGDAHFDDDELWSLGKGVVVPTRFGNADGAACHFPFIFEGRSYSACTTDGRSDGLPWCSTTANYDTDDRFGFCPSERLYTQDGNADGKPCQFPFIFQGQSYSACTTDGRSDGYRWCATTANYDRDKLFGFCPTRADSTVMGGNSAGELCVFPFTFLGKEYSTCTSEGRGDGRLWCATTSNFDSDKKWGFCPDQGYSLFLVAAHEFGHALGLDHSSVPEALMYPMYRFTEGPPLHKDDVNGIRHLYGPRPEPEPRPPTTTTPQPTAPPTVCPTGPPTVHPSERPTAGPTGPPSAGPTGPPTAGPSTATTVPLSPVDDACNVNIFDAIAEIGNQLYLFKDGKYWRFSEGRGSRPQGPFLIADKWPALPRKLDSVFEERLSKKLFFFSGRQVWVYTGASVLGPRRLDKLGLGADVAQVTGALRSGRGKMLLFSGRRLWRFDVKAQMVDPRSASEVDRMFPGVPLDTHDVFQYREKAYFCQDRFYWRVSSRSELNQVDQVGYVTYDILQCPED

“active MMP9 (Sigma catalog #SAE0078-50 or Enzo catalog BML-SE360)” was tested, and the “protein cleavage assay, extent of cleavage monitored by SDS PAGE” value was “the ACP11 fusion protein was cleaved by MMP9 protease”.
